Experimental data published in patent US20150361176A1 (GlaxoSmithKline, published 2015).
Substitutions are numbered along the chain they refer to. Names and notes keep the numbering of the source. One block for each binder: values may come before it.

How the values were obtained:
[1] = target: T1, mouse TGF-βRII on MC3T3-E1 cells (mouse osteoblasts) (mouse, UniProt Q62312 24-567); test: cell-based or functional assay
T1 sequence (looked up): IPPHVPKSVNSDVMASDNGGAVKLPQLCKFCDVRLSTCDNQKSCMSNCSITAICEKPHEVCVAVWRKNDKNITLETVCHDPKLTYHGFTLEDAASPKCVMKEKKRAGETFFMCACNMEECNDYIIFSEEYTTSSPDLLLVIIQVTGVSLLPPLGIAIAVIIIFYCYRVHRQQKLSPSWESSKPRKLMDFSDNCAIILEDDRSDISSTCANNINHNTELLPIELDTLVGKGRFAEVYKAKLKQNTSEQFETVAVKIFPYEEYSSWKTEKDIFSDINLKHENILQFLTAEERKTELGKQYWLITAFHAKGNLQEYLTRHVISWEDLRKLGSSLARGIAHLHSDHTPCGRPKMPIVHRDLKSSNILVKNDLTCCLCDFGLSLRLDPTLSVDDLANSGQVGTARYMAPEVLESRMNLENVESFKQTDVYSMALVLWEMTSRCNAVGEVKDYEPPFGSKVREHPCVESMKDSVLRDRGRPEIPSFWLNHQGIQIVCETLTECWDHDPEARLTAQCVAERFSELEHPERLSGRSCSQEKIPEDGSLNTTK

[2] = target: T2, human TGF-βRII on cells (SBE-bla HEK 293T cells; A549 cells) (human, UniProt P37173 23-567); test: cell-based or functional assay
T2 sequence (P37173 23-567): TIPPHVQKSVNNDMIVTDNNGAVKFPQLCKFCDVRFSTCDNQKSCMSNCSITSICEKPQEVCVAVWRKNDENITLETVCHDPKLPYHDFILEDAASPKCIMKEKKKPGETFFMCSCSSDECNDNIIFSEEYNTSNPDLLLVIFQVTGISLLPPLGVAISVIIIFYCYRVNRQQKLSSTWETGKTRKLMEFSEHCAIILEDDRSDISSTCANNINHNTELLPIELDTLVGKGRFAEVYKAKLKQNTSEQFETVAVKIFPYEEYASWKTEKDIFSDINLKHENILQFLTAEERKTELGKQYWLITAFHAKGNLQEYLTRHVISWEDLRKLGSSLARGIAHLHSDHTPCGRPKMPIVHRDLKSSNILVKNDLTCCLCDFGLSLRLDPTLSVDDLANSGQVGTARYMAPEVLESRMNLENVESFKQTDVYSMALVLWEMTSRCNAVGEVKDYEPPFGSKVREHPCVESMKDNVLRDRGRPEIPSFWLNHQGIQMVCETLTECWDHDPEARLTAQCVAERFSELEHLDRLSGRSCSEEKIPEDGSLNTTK

[3] = target: T2, human TGF-βRII on cells (SBE-bla HEK …); test: cell-based or functional assay; remark: listed apart in the source
[4] = target: T2, human TGF-βRII on cells (SBE-bla HEK …); test: cell-based or functional assay; remark: listed apart in the source
[5] = target: T3, recombinant human TGF-β RII/Fc chimera protein (human, UniProt P37173 24-159); test: SPR Biacore, purified dAb; antigen taken as human TGF-β RII/Fc
T3 construct: range 24-159; Made in HEK-F cells; Biotinylated where it was put on SA chips, otherwise captured by anti-human IgG; also called human TGFbRII/Fc; hRII-Fc; not shown: Fc region of human IgG1
T3 sequence (P37173 24-159 limits assumed, change not shown): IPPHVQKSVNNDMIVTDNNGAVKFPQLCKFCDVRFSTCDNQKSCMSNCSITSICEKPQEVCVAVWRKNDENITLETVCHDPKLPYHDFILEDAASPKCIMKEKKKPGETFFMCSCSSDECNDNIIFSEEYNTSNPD

[6] = target: T3, recombinant human TGF-β RII/Fc chimera …; test: SPR Biacore A100, antigen-Fc captured by anti-human IgG, purified dAb, 1:1 model
Protocol: BIACORE™ A100 analysis was carried out using a capture surface on a CM5 chip. Anti-human IgG was used as the capturing agent and coupled to a CM5 biosensor chip by primary amine coupling. The Antigen molecule fused to the human Fc was captured on this immobilised surface to a level from 200 to 300 resonance units and supernatants or purified domain antibodies were passed over this captured surface. An injection of media or buffer over the captured antigen surface was used for double referencing. On each flow cell, a protein A spot allowed to confirm the presence of domain antibody on each sample injected. […] All runs were carried out at 25° C. using HBS-EP buffer as running buffer. Data were generated using the BIACORE™ A100 and analyzed using its inherent software. Kinetics from purified samples were fitted to the 1:1 binding model while supernatant off-rates were analyzed using the 1:1 dissociation model and/or using the binding level and the stability level of each sample in comparison to the parent molecule.
A selection of mutants with improved off-rate were purified and subjected to full BIACORE™ A100 kinetic analysis to determine their affinity (Table 10). The thermal stability of the mutants was also determined by generation of melting profiles in the presence of SYPRO™ Orange (Invitrogen). Briefly, the purified dAbs were diluted to 50 and 100 ug/ml in a 1:500 dilution of SYPRO™ Orange in PBS, and subjected to a 30-90° C. melt curve in a Mini OPTICON™ PCR machine (BioRad). The Tm of the major positive transition was determined at each concentration and used to calculate an estimated Tm value at 1 mg/ml as an indication of the melting temperature for comparison (Table 10).

[7] = target: T3, recombinant human TGF-β RII/Fc chimera …; test: SPR Biacore, human TGFbRII-FC, 1:1 model
[8] = target: T1, mouse TGF-βRII on MC3T3-E1 cells (mouse …); test: cell-based or functional assay; remark: listed apart in the source
[9] = target: T2, human TGF-βRII on cells (SBE-bla HEK …); test: cell-based or functional assay; remark: listed apart in the source
cynomolgus TGF-β RII/Fc = target: T4, cynomolgus TGF-β RII/Fc (cynomolgus); test: SPR Biacore
T4 construct: extracellular domain; also called Cyno TGFBRII; Cyno TGFbRII

[10] = target: T3, recombinant human TGF-β RII/Fc chimera …; test: SPR Biacore

max % inhibition, Average (Mouse 3T3 cell assay, method m2) [1]: 48% | max % inhibition, Average (SBE-bla HEK CELLSENSOR assay, h2) [2]: 46.7%
B1: DOM23h-352 (VHH, not shown: small tags and cut ends)
VHH: EVQLLESGGGLVQPGGSLRLSCAASGFTFDKYKMAWVRQAPGKGLEWVSLIFPNGVPTYYANSVKGRFTISRDNSKNTLYLQMNSLRAEDTAVYYCAKYSGQGRDFDYWGQGTLVTVSS

max % inhibition, Average (Mouse 3T3 cell assay, method m1) [1]: 54.2%
B2: DOM23m-29 (VHH, not shown: small tags and cut ends)
VHH: EVQLLESGGGLVQPGGSLRLSCAASGFTFKRYSMGWVRQAPGKGLEWVSVINDLGSLTYYADSVKGRFTISRDNSKNTLYLQMNSLRAEDTAVYYCAKGNISMVRPGSWFDYWGQGTLVTVSS

max % inhibition, Average (Mouse 3T3 cell assay, method m1) [1]: 44.9% | max % inhibition, Average (Human IL-11 release, h1) [2]: -2%
B3: DOM23m-71 (VHH, not shown: small tags and cut ends)
VHH: EVQLLESGGGLVQPGGSLRLSCAASGFTFMDYRMYWVRQAPGKGLEWVSGIDPTGLRTYYADSVKGRFTISRDNSKNTLYLQMNSLRAEDTAVYYCAKIKWGEMGSYKTFDYWGQGTLVTVSS

max % inhibition, Average (Mouse 3T3 cell assay, method m1) [1]: 39.7%
B4: DOM23m-32 (VHH, not shown: small tags and cut ends)
VHH: EVQLLESGGGLVQPGGSLRLSCAASGFTFFEYPMGWVRQAPGKGLEWVSVISGDGQRTYYADSVKGRFTISRDNSKNTLYLQMNSLRAEDTAVYYCAKSHTGTVRHLETFDYWGQGTLVTVSS

Mean IC50 (nM), SBE-bla HEK 293T Cell Sensor assay (h2) [3]: > 25000 nM | IC50 nM, Mean (SBE-bla HEK 293T cell sensor assay, h2) [4]: > 4470 nM | Kd [5]: 941 nM | koff [5]: 0.315 s⁻¹ | kon [5]: 335000 M⁻¹ s⁻¹
B5: DOM23h-855 (VHH)
VHH: EVQLLESGGGLVQPGGSLRLSCAASGFTFENTSMGWVRQAPGKGLEWVSRIDPKGSHTYYADSVKGRFTISRDNSKNTLYLQMNSLRAEDTAVYYCAKQRELGKSHFDYWGQGTLVTVSS
notes: human VH domain antibody (dAb), naive lead; parent of DOM23h-855-21; not shown: C-terminal FLAG tag from vector pDOM10

max % inhibition, Average (Mouse 3T3 cell assay, method m2) [1]: 46.5%
B6: DOM23m-99 (VHH, not shown: small tags and cut ends)
VHH: EVQLLESGGGLVQPGGSLRLSCAASGFTFDRYRMMWVRQAPGKGLEWVSTIDPAGMLTYYADSVKGRFTISRDNSKNTLYLQMNSLRAEDTAVYYCAKRLASRSHFDYWGQGTLVTVSS

max % inhibition, Average (Mouse 3T3 cell assay, method m1) [1]: 73.3% | max % inhibition, Average (Human IL-11 release, h1) [2]: 70.7% | max % inhibition, Average (SBE-bla HEK CELLSENSOR assay, h2) [2]: 69%
B7: DOM23m-4 (VHH, not shown: small tags and cut ends)
VHH: EVQLLESGGGLVQPGGSLRLSCAASGFTFTTYGMGWVRQAPGKGLEWVSWIEKTGNKTYYADSVKGRFTISRDNSKNTLYLQMNSLRAEDTAVYYCAKAGRHIKVRSRDFDYWGQGTLVTVSS

max % inhibition, Average (Mouse 3T3 cell assay, method m1) [1]: 17.5% | max % inhibition, Average (Human IL-11 release, h1) [2]: 1.7%
B8: DOM23m-72 (VHH, not shown: small tags and cut ends)
VHH: EVQLLESGGGLVQPGGSLRLSCAASGFTFMDYDMSWVRQAPGKGLEWVSMIREDGGKTYYADSVKGRFTISRDNSKNTLYLQMNSLRAEDTAVYYCAKARVPYRRGHRDNFDYWGQGTLVTVSS

Mean IC50 (nM), SBE-bla HEK 293T Cell Sensor assay (h2) [3]: 1950 nM | IC50 nM, Mean (SBE-bla HEK 293T cell sensor assay, h2) [4]: > 9010 nM | Kd [5]: 378 nM | koff [5]: 0.343 s⁻¹ | kon [5]: 905000 M⁻¹ s⁻¹
B9: DOM23h-843 (VHH)
VHH: EVQLLESGGGLVQPGGSLRLSCAASGFTFDQDRMWWVRQAPGKGLEWVSAIESGGHRTYYADSVKGRFTISRDNSKNTLYLQMNSLRAEDTAVYYCAKQNESGRSGFDYWGQGTLVTVSS
notes: human VH domain antibody (dAb), naive lead; parent of DOM23h-843-13; not shown: C-terminal FLAG tag from vector pDOM10

max % inhibition, Average (Mouse 3T3 cell assay, method m2) [1]: 48% | max % inhibition, Average (SBE-bla HEK CELLSENSOR assay, h2) [2]: 59.8%
B10: DOM23m-101 (VHH, not shown: small tags and cut ends)
VHH: EVQLLESGGGLVQPGGSLRLSCAASGFTFSEYDMAWVRQAPGKGLEWVSRIRSDGVRTYYADSVKGRFTISRDNSKNTLYLQMNSLRAEDTAVYYCAKDRAKNGWFDYWGQGTLVTVSS

max % inhibition, Average (Mouse 3T3 cell assay, method m1) [1]: 78.6% | max % inhibition, Average (Human IL-11 release, h1) [2]: 79%
B11: DOM23m-62 (VHH, not shown: small tags and cut ends)
VHH: EVQLLESGGGLVQPGGSLRLSCAASGFTFGQESMYWVRQAPGKGLEWVSAISGSGGSTYYADSVKGRFTISRDNSKNTLYLQMNSLRAEDTAVYYCAKSGTRIKQGFDYWGQGTLVTVSS

Mean IC50 (nM), SBE-bla HEK 293T Cell Sensor assay (h2) [3]: 3570 nM | Kd [5]: 24.2 nM | koff [5]: 0.0502 s⁻¹ | kon [5]: 2.08e+06 M⁻¹ s⁻¹
B12: DOM23h-439 (VHH)
VHH: EVQLLESGGGLVQPGGSLRLSCAASGFTFGTEQMWWVRQAPGKGLEWVSRIDSPGGRTYYADSVKGRFTISRDNSKNTLYLQMNSLRAEDTAVYYCAKRHAAGVSGTYFDYWGQGTLVTVSS

Kd [6]: 4.17 nM
B13: DOM23h-271 mutant 1H11 (L at 61, W at 64) (VHH, name in Kabat numbering)
VHH: EVQLLESGGGLVQPGGSLRLSCAASGFTFTEYRMWWVRQAPGKGLEWVSAIEPIGNRTYYALSVWGRFTISRDNSKNTLYLQMNSLRAEDTAVYYCAKQIPGRKWTANSRFDYWGQGTLVTVSS
notes: human VH dAb; expressed from pDOM13; also called LW

Kd [6]: 4.34 nM
B14: DOM23h-271 mutant 3D9 (K at 61, G at 64) (VHH, name in Kabat numbering)
VHH: B13 VHH with L62K, W65G
notes: human VH dAb; expressed from pDOM13; also called KG

Kd [6]: 4.26 nM
B15: DOM23h-271 mutant 3D4 (K at 61, T at 64) (VHH, name in Kabat numbering)
VHH: B13 VHH with L62K, W65T
notes: human VH dAb; expressed from pDOM13; also called KT

Kd [7]: 0.578 nM | koff [7]: 0.00126 s⁻¹ | kon [7]: 2.17e+06 M⁻¹ s⁻¹
B16: DOM23h-271-27 (VHH)
VHH: B13 VHH with N56Q, R57K, L62D, W65K, T121I
notes: human VH dAb from DNA display; expressed from pDOM13

Kd [6]: 3.27 nM
B17: DOM23h-271 mutant 3F11 (R at 61, E at 64) (VHH, name in Kabat numbering)
VHH: B13 VHH with L62R, W65E
notes: human VH dAb; expressed from pDOM13; also called RE

Kd [6]: 3.34 nM
B18: DOM23h-271 mutant 2C12 (D61N, K64R) (VHH, name in Kabat numbering)
VHH: B13 VHH with L62N, W65R
notes: human VH dAb; expressed from pDOM13; also called NR

Kd [7]: 0.147 nM | koff [7]: 0.000472 s⁻¹ | kon [7]: 3.21e+06 M⁻¹ s⁻¹
B19: DOM23h-271-21 (VHH)
VHH: B13 VHH with L62D, W65K, I100M, N108K, S109F, F111W, T121I
notes: as for B16

Mouse 3T3 Luciferase assay IC50 [8]: > 17800 nM | Human Cell sensor IC50 [9]: 39 nM | Kd (cynomolgus TGF-β RII/Fc): 0.225 nM | Kd [10]: 0.202 nM | Kd [7]: 0.286 nM | koff [7]: 0.000919 s⁻¹ | kon [7]: 3.22e+06 M⁻¹ s⁻¹
B20: DOM23h-271-22 (VHH)
VHH: B13 VHH with L62D, W65K, I100M, R103Q, T106M, N108K
notes: as for B16

max % inhibition, Average (Mouse 3T3 cell assay, method m2) [1]: 30.3%
B21: DOM23m-81 (VHH, not shown: small tags and cut ends)
VHH: EVQLLESGGGLVQPGGSLRLSCAASGFTFEPVIMGWVRQAPGKGLEWVSAIEARGGGTYYADSVKGRFTISRDNSKNTLYLQMNSLRAEDTAVYYCAKPGRHLSQDFDYWGQGTLVTVSS
